Assay results as given in the FLAb antibody collection (doi:10.7554/elife.23156).

B1: scFv; the commonest letter at each place (parent)
chain 1: EVKLDETGGGLVQPGRPMKLSCVASGFTFSDYWMNWVRQSPEKGLEWVAQIRNKPYNYETYYSDSVKGRFTISRDDSKSSVYLQMNNLRVEDMGIYYCTGSYYGMDYWGQGTSVTVS
chain 2: DVVMTQTPLSLPVSLGDQASISCRSSQSLVHSNGNTYLRWYLQKPGQSPKVLIYKVSNRFSGVPDRFSGSGSGTDFTLKISRVEAEDLGVYFCSQSTHVPWTFGGGTKLEIK

Columns and labels:
fluorescein = variants of: B1; test: Kd (Tite-Seq); settings: with fluorescein; format: scFv 4-4-20, heavy + light
[1] = variants of: B1; test: yeast surface expression (ratio to wild type); higher = more expressed; settings: format: scFv 4-4-20, heavy + light

| Variant | Kd (fluorescein) [µM] | yeast surface expression [1] |
| --- | --- | --- |
| chain 1 W33C M34Q | ≥ 10 | 0.755 |
| chain 1 T28N W33M | ≥ 10 | 1.01 |
| chain 1 G100R G109C | ≥ 10 | 0.173 |
| chain 1 W108G G109V | ≥ 10 | 0.228 |
| chain 1 Y107G W108L G109E | ≥ 10 | 0.331 |
| chain 1 S101R D106N | ≥ 10 | 0.225 |
| chain 1 S30H D31L | ≥ 10 | 0.608 |
| chain 1 F29Y V37P | 0.228 | 2.26 |
| chain 1 M34F V37C | 0.00104 | 0.75 |
| chain 1 Y103C W108N | 0.495 | 0.227 |
| chain 1 Y32H V37T | ≥ 10 | 0.874 |
| chain 1 T28S M34R | ≥ 10 | 1.99 |
| chain 1 W33C M34G N35E | ≥ 10 | 1.65 |
| chain 1 G100T M105W | ≥ 10 | 0.733 |
| chain 1 Y32V W33N | ≥ 10 | 1.16 |
| chain 1 Y102A D106L | ≥ 10 | 0.691 |
| chain 1 Y102K Y107I | 0.0302 | 1 |
| chain 1 D106N W108I | 0.00871 | 0.556 |
| chain 1 G100C W108L | 0.000389 | 0.653 |
| chain 1 G100Y G109P | ≥ 10 | 0.22 |
| chain 1 G100R Y107P W108D | ≥ 10 | 0.43 |
| chain 1 N35I W36L | ≥ 10 | 2.65 |
| chain 1 T28L S30A | 0.00175 | 1.11 |
| chain 1 N35E V37W | ≥ 10 | 0.704 |

| Variant | Kd (fluorescein) [µM] | yeast surface expression [1] |
| --- | --- | --- |
| chain 1 G104D W108T | ≥ 10 | 0.417 |
| chain 1 Y102K Y103M | 1.14 | 1.08 |
| chain 1 Y32P V37G | ≥ 10 | 2.54 |
| chain 1 S101D G109H | ≥ 10 | 0.247 |
| chain 1 Y103D D106R | ≥ 10 | 0.454 |
| chain 1 S30W D31N | ≤ 0.000316 | 0.866 |
| chain 1 F29I N35P | ≥ 10 | 2.62 |
| chain 1 D31I W36E | ≥ 10 | 0.663 |
| chain 1 W33M V37L | ≥ 10 | 0.553 |
| chain 1 Y103S G109T | ≥ 10 | 0.469 |
| chain 1 M105C W108M | 0.000389 | 0.656 |
| chain 1 M105N G109Q | ≥ 10 | 0.235 |
| chain 1 S30E N35E | ≥ 10 | 0.894 |
| chain 1 Y102C D106L | ≥ 10 | 0.306 |
| chain 1 G100C S101C | ≥ 10 | 0.624 |
| chain 1 Y103P G109S | ≥ 10 | 0.828 |
| chain 1 F29N S30H | ≥ 10 | 0.954 |
| chain 1 Y102M Y103A Y107L | ≥ 10 | 0.84 |
| chain 1 G100L S101M | ≥ 10 | 0.474 |
| chain 1 F29C M34K W36I | ≥ 10 | 0.425 |
| chain 1 S101T Y103P | ≥ 10 | 0.643 |
| chain 1 W33A | ≥ 10 | 0.883 |
| chain 1 Y32M W36D | ≥ 10 | 0.63 |

More lines, main results first:

| Kd (fluorescein) [µM] | Variant | yeast surface expression [1] |
| --- | --- | --- |
| 0.000989 | chain 1 T28V S30Q | 1.1 |
| 0.0125 | chain 1 Y102K M105Y | 0.955 |
| ≥ 10 | chain 1 S101Y | 0.659 |
| ≥ 10 | chain 1 S101P | 0.244 |
| 4.37 | chain 1 Y103Q M105Q | 1.14 |
| 0.00638 | chain 1 T28Y D31W V37T | 0.808 |
| ≥ 10 | chain 1 Y102E G109N | 0.382 |
| ≥ 10 | chain 1 F29L D31L | 0.633 |
| ≥ 10 | chain 1 G100V Y102P M105N | 0.63 |
| ≥ 10 | chain 1 W33Q W36T | 0.706 |
| ≥ 10 | chain 1 G100Q D106P | 0.222 |
| ≥ 10 | chain 1 G100F Y102D | 0.974 |
| ≥ 10 | chain 1 G104I | 0.325 |
| ≥ 10 | chain 1 G104K | 0.557 |
| 1.67 | chain 1 Y32K | 0.804 |
| ≥ 10 | chain 1 Y32V | 1.02 |
| 0.435 | chain 1 Y32L | 0.893 |
| ≥ 10 | chain 1 F29Q Y32V | 0.848 |
| ≥ 10 | chain 1 W108Q G109E | 0.459 |
| ≥ 10 | chain 1 Y102F G104Y W108D | 0.204 |
| ≥ 10 | chain 1 S101D D106N | 0.813 |
| ≥ 10 | chain 1 S101D D106K | 0.435 |
| ≥ 10 | chain 1 D31E W33C | 0.827 |

| Kd (fluorescein) [µM] | Variant | yeast surface expression [1] |
| --- | --- | --- |
| 5.66 | chain 1 S30G M34H | 0.659 |
| ≥ 10 | chain 1 T28H Y32I | 0.92 |
| ≥ 10 | chain 1 D31M Y32S | 0.804 |
| ≥ 10 | chain 1 M34K W36M | 0.273 |
| ≥ 10 | chain 1 S30R M34D | 0.775 |
| ≥ 10 | chain 1 Y103N M105G Y107M | 0.836 |
| ≥ 10 | chain 1 N35I W36N | 0.743 |
| 0.00184 | chain 1 T28L S30Y | 0.738 |
| ≥ 10 | chain 1 T28C F29P | 0.637 |
| 0.00638 | chain 1 T28A F29V | 1.02 |
| ≥ 10 | chain 1 S101K Y102I | 0.647 |
| ≥ 10 | chain 1 Y32P V37Y | 0.716 |
| ≥ 10 | chain 1 Y103P D106T W108C | 0.258 |
| ≥ 10 | chain 1 D106P W108K | 0.407 |
| ≥ 10 | chain 1 Y103V M105P | 0.474 |
| ≥ 10 | chain 1 D106T G109M | 0.285 |
| 4.6 | chain 1 Y102M | 0.944 |
| ≥ 10 | chain 1 Y102G M105V | 1.02 |
| 5.66 | chain 1 S30W Y32C | 0.838 |
| ≥ 10 | chain 1 W33M V37P | 0.458 |
| 0.0657 | chain 1 W33M V37E | 0.701 |
| ≥ 10 | chain 1 G104V M105E | 0.637 |
| ≥ 10 | chain 1 T28K W33S | 0.995 |

| Kd (fluorescein) [µM] | Variant | yeast surface expression [1] |
| --- | --- | --- |
| ≥ 10 | chain 1 M105G W108N | 0.415 |
| ≥ 10 | chain 1 D31P Y32L | 0.86 |
| ≥ 10 | chain 1 W108H G109C | 0.362 |
| 0.00917 | chain 1 Y102D W108T | 0.785 |
| ≥ 10 | chain 1 W36H | 0.522 |
| ≥ 10 | chain 1 Y103L Y107D | 0.471 |
| ≥ 10 | chain 1 G100F S101I | 0.501 |
| ≥ 10 | chain 1 G100D D106Q | 0.17 |
| ≥ 10 | chain 1 S30L D31L | 0.0981 |
| 7.33 | chain 1 T28G Y32K | 0.795 |
| ≥ 10 | chain 1 G100C S101W | 0.507 |
| 0.0391 | chain 1 F29N S30E | 1.07 |
| ≥ 10 | chain 1 S101I Y103T W108D | 0.293 |
| ≥ 10 | chain 1 S101N M105P | 0.537 |
| ≥ 10 | chain 1 F29R D31K | 0.343 |
| ≥ 10 | chain 1 G104E D106A | 0.657 |
| 2.23 | chain 1 T28I Y32S | 0.842 |
| ≥ 10 | chain 1 Y32H M34H | 0.674 |
| ≥ 10 | chain 1 W33G | 0.809 |
| 0.00325 | chain 1 T28Y | 0.919 |
| ≥ 10 | chain 1 G100Y Y107W | 0.468 |
| ≥ 10 | chain 1 Y107L G109R | 0.343 |
| ≥ 10 | chain 1 T28Y W36Q | 0.297 |
